Test results taken from paper PMC3458545 (Nucleic Acids Research, 2012).

Tests used:
[1] = biological target: GST-TopBP1 (a.a. 1233–1522) (human, UniProt Q92547 1233-1522); experiment: SPR
RecQL4_N54 = biological target: T1, RecQL4_N54 (human (Homo sapiens), UniProt O94761 1-54); experiment: EMSA
T1 sequence: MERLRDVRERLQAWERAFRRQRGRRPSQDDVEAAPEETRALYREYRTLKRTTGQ

Chain of GST-TopBP1 (a.a. 1233–1522) (Q92547 1233-1522): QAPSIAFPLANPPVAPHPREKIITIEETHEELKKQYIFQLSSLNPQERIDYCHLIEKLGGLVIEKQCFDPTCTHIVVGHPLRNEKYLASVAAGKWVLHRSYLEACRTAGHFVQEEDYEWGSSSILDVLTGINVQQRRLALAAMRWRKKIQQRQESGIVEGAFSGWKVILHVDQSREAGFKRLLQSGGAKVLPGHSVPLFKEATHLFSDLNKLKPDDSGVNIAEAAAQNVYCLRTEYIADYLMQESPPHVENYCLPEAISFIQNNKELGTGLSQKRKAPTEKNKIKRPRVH

B1: RecQL4_N54 (domain or fragment, human)
chain: GSMERLRDVRERLQAWERAFRRQRGRRPSQDDVEAAPEETRALYREYRTLKRTTGQ
With B1 the Kd [1] was ~70 µM.

B2: S4-M3 Y (mixed)
DNA 1: ATCCTCTCTAGAGTCAAGGTCGGAGTTAGAGTAG
DNA 2: CTACTCTAACTCCGACCGCTTGCATGCCTGCAGG
B2: binds (RecQL4_N54).

B3: M2-M4 Y (mixed)
DNA 1: GCTTGCATGCCTGCAGGCCAGCCTCAATCTCATC
DNA 2: ATCCTCTCTAGAGTCGACCTGCAGGCATGCAAGC
B3: binds (RecQL4_N54).
